Measurements: article PMC5027281 (Nature Communications, 2016)

Biological target: Recombinant full-length HA of A/Vietnam/1203/04 (H5-VN04) (Influenza A virus A/Vietnam/1203/2004 …, UniProt Q5EP31)
Test: BLI
Settings: both partners purified

B1: 3I14 VLD94N variant IgG1 (antibody, V domains shown)
VH: QVQLLESGGGVVQPGRSLRLSCAASGFTFSNYGMHWVRQAPGKGLEWVAIISFDGSKKYYANSVKGRSTISRDNSKNTLSLQMNSLGPEDTALYYCAKLPSPYYFDSRFVWVAASAFHFWGQGILVTVSS
VL: NFMLTQPPSASGTPGQRVTISCSGSSSNIGGNTVHWFQQLPGTAPKLLIYTNSLRPSGVPDRFSGSKSGTSASLAISGLQSEDEADYYCAAWDNSLNGQVFGGGTKLTVL
  Kd: 0.187 nM
  koff: 7.74e-05 s⁻¹
  kon: 383000 M⁻¹ s⁻¹
